Experimental data published in the nanobody polyreactivity screen of Harvey et al. (2022).

assay: yeast display, Sf9 membrane polyspecificity reagent, FACS + sequencing; frameworks hold sequencing errors
Summary of the method: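 After 36–48 hours of galactose induction, yeast (Saccharomyces cerevisiae BJ5465) displaying a synthetic nanobody library were stained at 4 °C for 1 hour with 10% biotinylated, detergent-solubilized Sf9 membrane reagent. Streptavidin microbeads enriched the stained cells before FACS sorting into low and high (top ~1%) gates on anti-HA and streptavidin fluorescence. Each clone's polyreactivity label reflects its gate of origin.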

Q: With “QVHLVESGAGLDQAGGSLSLSCAASGRNFSFNAMGSYRQAPGKVRELVASIRSGGSTNYADSVKGRFTISSDNAKNTVYLQMNSLKPEDTAVYYCAKRSTYWGWSSYGMDHWGQGTQVTVSS” as the sequence, how does the “polyreactivity (PSR sort gate)” value read?
A: Its value is “high polyreactivity”.

Q: Which “polyreactivity (PSR sort gate)” value does the source give for “QVHLVESGAGLVQAGGSLRLSCAASGRVFYYYAMGWYRQAPGKEREFVATISWSGVRTYYADSVKGRFTISRDNAKNTVYLQMNSLKPEDTAVYYCNADYYSPKFPSGMNYWGQGTQVTVSS” here?
A: The value was “high polyreactivity”.

Q: For “QVHLVESGAGLVQAGGSLRLSCAASGSTFAPNAMGWYRQAPGKERELVAAISSGGDSTNYADSVKGRFTISRDNAKNTVYLQMNSLKPEDTEVYYCAHGYWFVAYDYWGEGTQVTVSS”, which “polyreactivity (PSR sort gate)” value is on record?
A: The value was “low polyreactivity”.

Q: Which “polyreactivity (PSR sort gate)” value does the source give for “QVHLVESGAGLVQAGGSLSLSCAASVFTLHVYALGWYRQAPGKERELVAALSTGGNTNYADSVKGRFTISRDNAKNTVYLQMHSLKPEDTAVYYCAASNRGATRRQVNYWGQGTQVTVSS” here?
A: Its value is “high polyreactivity”.

Q: With “QVHLVESGGALVQAGGSLRLSCAASGFIFRKYAMGWYRQAPGKERELVAAISYRGASTYYADSVKGRFTISRDNAKNTVYLQMNSLKPEDTAVYYCADRYSNPWARVSGYDYWGQGTQVTVSS” as the sequence, how does the “polyreactivity (PSR sort gate)” value read?
A: Its value is “high polyreactivity”.

Q: Which “polyreactivity (PSR sort gate)” value does the source give for “QVHLVESGGGIVQAGGSHRLSCAATGRIFAPYAMGWYRQAPGKERELVAAISWSDVSTDYADSVKGRFTISRDNAKNTVYLQMNSLKPEDTAVSYCAAAYPGYRGWYYYWGQGTQVTVSS” here?
A: The value was “high polyreactivity”.

Q: With “QVHLVESGGGIVQAGGSLRLSCAASGFTFQYNAMGWYRQAPGKERELVAAISYSGTSTYYADSVKGRFTISRDNPKNTVSLQKNSLKPEETAVYYCAVPRLSGSPSAYGYYYWGQGTQVTVSS” as the sequence, how does the “polyreactivity (PSR sort gate)” value read?
A: The value was “high polyreactivity”.

Q: For “QVHLVESGGGIVQAGGSLRLSCAASGFTFTQYGMGWYRQAPGKEREFVATIRFSGDNTYYADSVKGRFTISRDNAKNTVYLQMNSLNPEDTAVYYCNADNRAFFVYPVSKRYDYWGQGTQVTVSS”, which “polyreactivity (PSR sort gate)” value is on record?
A: The value was “low polyreactivity”.

Q: For “QVHLVESGGGIVQAGGSLRLSCAASGIIFMDNAMGWYRQAPGKERELVAAITTGGITYYADSVKGRFTISRDNAKNTVYLQMNSLKPEDTAVYYCAADNEWPRYDYWGQGTQVTVSS”, which “polyreactivity (PSR sort gate)” value is on record?
A: Its value is “low polyreactivity”.

Q: Which “polyreactivity (PSR sort gate)” value does the source give for “QVHLVESGGGIVQAGGSLRLSCAASGSTFGYYAMGWYRQAPGKERELVAAITTRGTRTYADSVKGRFTISRDNAKNTVYLQMNSLKPEDTAVYYCNAYEWGDFVLYTTDYDYWGQGTHVTVSS” here?
A: The value was “high polyreactivity”.

Q: Which “polyreactivity (PSR sort gate)” value does the source give for “QVHLVESGGGLDQAGGSLRLSCAASGRTFKSYTMGWYRQAPGKEREFVAAISSRGGNTYYADSVKGRFTISRDNAKNTVYLQMNSLKPEDTAVYYCAAESSYWSFPTYDYWGQGTQVTVSS” here?
A: The value was “high polyreactivity”.

Q: Which “polyreactivity (PSR sort gate)” value does the source give for “QVHLVESGGGLDQAGGSLRLSSAASGFTFQKYAMGWYRQAPGTERELVAAISSSGGRTYYADSLNGRFTISRDNAKITVYLQMNSLKPEDTAVYYCAVRGSYRGWYDYWGQGTQVTVSS” here?
A: The value was “high polyreactivity”.

Q: For “QVHLVESGGGLLQAGGSLRLSCAASGRTSDSNAMGWYRQAPGKETELVAAITISGVSTYYADTVKGRFTISRDNAKNTVYLQMNSLKPEDTAVYYCAKDPTFSSSFAVSLGFDSWGQGTQVTVSS”, which “polyreactivity (PSR sort gate)” value is on record?
A: Its value is “low polyreactivity”.

Q: With “QVHLVESGGGLVEAGGSLRISCAAYGFIFGYNAMGWYRQAPGKERELVARINSGGNTNYADSVKGRFTISRDNAKNTVYLQMNSLKPEDTAVYYCARDASNRYDYWGQGNQVTVSS” as the sequence, how does the “polyreactivity (PSR sort gate)” value read?
A: The value was “low polyreactivity”.

Q: For “QVHLVESGGGLVHAGGSLRLSCAASGIIFSYYAMGWYRQAPVKERELVAAISRSGVRTYFSDSVKGRFTISRDNAKNTVYLQMNSLKPEDTSVYYCNAEFSPYPYDYWGQGTQVTVSS”, which “polyreactivity (PSR sort gate)” value is on record?
A: The value was “high polyreactivity”.

Q: For “QVHLVESGGGLVHAGGSLRLSCAASGSTFDYYAMGWYRQEHGKERELVAAISSGGSTYYADSVKGSFTISRDNPKNTVYLQMNSRKPEDTAVYYCAAVYRGQFSRYDYWGQGTQVTVSS”, which “polyreactivity (PSR sort gate)” value is on record?
A: The value was “low polyreactivity”.

Q: For “QVHLVESGGGLVHAGGSLRLSCAASGSTFSYYTMGWYRQAPGKERELVAAITRRGDSTYADSVKGRFTISRDNAKNTVYLQMNSLKPEDTAVYYCAADASVGVSGMDYWGQGTQVTVSS”, which “polyreactivity (PSR sort gate)” value is on record?
A: The value was “low polyreactivity”.

Q: Which “polyreactivity (PSR sort gate)” value does the source give for “QVHLVESGGGLVHAGGSLRVSCAASGYTFHRYAMGWYRQAPGKERELVAAITRGGGSTRYADSVKGRFTISRDNAKYTVYLQMNSLKPEDTAVYYCAAERRTPGRTTYYYWGQGTQVSVSS” here?
A: The value was “high polyreactivity”.

Q: With “QVHLVESGGGLVKAGGSLRLSCAASGLTFSYYARGWSRQPPGKEMELVAANSWSGGSTYYADSVKGRFTISRDNAKNTVYLQMNSLKPEDTAVYDCAVRPSDGVIFSKGYDHWGQGTQVTVSS” as the sequence, how does the “polyreactivity (PSR sort gate)” value read?
A: The value was “low polyreactivity”.

Q: Which “polyreactivity (PSR sort gate)” value does the source give for “QVHLVESGGGLVKAGGSLRLSCAASGRIFYTYAMGWYRQAPGKERELVAAISRSGGRTYYADSVKGRFTISRDNGKNTVYLQMNSLKPEDNAVYYCNAVENWLFSSHDYWGQGTQVTVSS” here?
A: The value was “low polyreactivity”.

Q: For “QVHLVESGGGLVKAGGSLRLSCSASGSIFTYNAMGWYRQAPGKERELVAAISSRGTSTYYSDSVKGRFTISRDNAKNTVYLQMNSLKPEDTAVYYCAAVWVSQRRPWGNTNNYWGQGTQVTVSS”, which “polyreactivity (PSR sort gate)” value is on record?
A: The value was “high polyreactivity”.

Q: Which “polyreactivity (PSR sort gate)” value does the source give for “QVHLVESGGGLVLAGGSLRLSCAASGSTFGINAMGWYRQAPGKEREFVASISWSTGTTYYADSVKGRFTISRDNAKNTVYLQMNSLKPEDTAVYSCAAVDYYWGYEQWYDYWGQGTQVTVSS” here?
A: The value was “high polyreactivity”.

Q: Which “polyreactivity (PSR sort gate)” value does the source give for “QVHLVESGGGLVLAGGSLRLSCAASGSTLHLYAMGWYRQAPGKERELVADITSGGDTYYADSVKGRFTISRDNAKNTVYFQMNSLKPEDTAVYYCAAGPVYDWRGGALRYYYWGQGTQVSVSS” here?
A: Its value is “high polyreactivity”.

Q: Which “polyreactivity (PSR sort gate)” value does the source give for “QVHLVESGGGLVPAGGSLRLTCAASGSTLWFNAMRWYRQAPGKERELVAAISFYSGSTYYSDSVKGRFTISRDNANNTVYLQMNSLKPEDTAVYYCAARRRWWGYDYWGQATQVTVSS” here?
A: Its value is “high polyreactivity”.

Q: For “QVHLVESGGGLVQAAGSLRLSCAASGFIFYYYAMGWYRQAPGKERELVAAISRSGGRTYYADSVKGRFTISRDNAKNTVYLQMNSLKPEDTAVYYCAAPGYQTVGMGYWGQGTQVTVSS”, which “polyreactivity (PSR sort gate)” value is on record?
A: Its value is “high polyreactivity”.

Q: Which “polyreactivity (PSR sort gate)” value does the source give for “QVHLVESGGGLVQAGASLRLSCAASGITFRFNAMGWYRQAPGKEREFVAAITYSGDSTYYADSVKGRFTISRDNAKNTVYLQMNSLKPEDTAVYYCAADYYAISRRMFYYWGQGTQVTVSS” here?
A: Its value is “low polyreactivity”.

Q: With “QVHLVESGGGLVQAGGRLRLSCAASGFTFYKYAMGWYRQAPGKERELVAAITWSGGRTYYADSVKGRFTISRDNAKNTVYLQMNSLKPEDTAVYYCAADLHKLARYDYWGQGTQVTVSS” as the sequence, how does the “polyreactivity (PSR sort gate)” value read?
A: The value was “high polyreactivity”.

Q: Which “polyreactivity (PSR sort gate)” value does the source give for “QVHLVESGGGLVQAGGSFRLSCAASGSIFDGYSMGWYRQAPGKERELVAAISYRVGRTYYADSVKGRFTISRDNAKNTVYLQMNSLKPEDTAVYYCAAGYYGNGVFEYDYWGQGTQVTVSS” here?
A: The value was “low polyreactivity”.

Q: With “QVHLVESGGGLVQAGGSHRLSCAASGRIFRGYAMGWYIQAPGKERELVAAISGRGGRTYYADSVKGRFTISRDNAKNTVYLQMNSLKPEDTAVYYCNARRGRRGYYGNGDYWGQGTQVTVSS” as the sequence, how does the “polyreactivity (PSR sort gate)” value read?
A: The value was “high polyreactivity”.

Q: With “QVHLVESGGGLVQAGGSHRLSCAASGRTFDNYAMGWYRQAPGKERELVAAISRRGGSTYYADSVKGRFTISRDNAKNTVYLQMNSLKPEDTAVYYCAADRLVWKPTVVGFYYWGQGTQVTVSS” as the sequence, how does the “polyreactivity (PSR sort gate)” value read?
A: The value was “high polyreactivity”.

Q: Which “polyreactivity (PSR sort gate)” value does the source give for “QVHLVESGGGLVQAGGSIRLSCAASGRTLDPYTMGWYRQAPGKERELVAAITSSGGRTTYADSVKGRFTISRDNAKITVYLQMNSLKPEDTAVYYCAKKFRPVYRSQYLRYSWGQGTQVTVSS” here?
A: The value was “low polyreactivity”.

Q: Which “polyreactivity (PSR sort gate)” value does the source give for “QVHLVESGGGLVQAGGSLCLSCAASGSIFINAMGWYRQAPGKERELVATIRWRGGTTYYADSVKGRFTISRDNAKNTVYLQMNSLKPEDTAVYYCAARVHSVHYPYYYWGQGTQVTVSS” here?
A: Its value is “low polyreactivity”.

Q: With “QVHLVESGGGLVQAGGSLLLSCAASGIIFSYYAMGWYRQAPGKERELVAAISRSGVRPYYADSVKGRFTISRDNAKHTVYLQMYSLKPEDTAVYYCNAEFSPYPYDYWGQGTQVSVSS” as the sequence, how does the “polyreactivity (PSR sort gate)” value read?
A: Its value is “high polyreactivity”.

Q: With “QVHLVESGGGLVQAGGSLRLICAASGRIYTFYAMGWYRQAPGKERHLVAAIRGSSVSTYYADSVKGRFTISRDNAKITVYLQMNSLKPEDTAVYYCAADIYLWNSEYYYWGQGTQVTVSS” as the sequence, how does the “polyreactivity (PSR sort gate)” value read?
A: Its value is “low polyreactivity”.

Q: Which “polyreactivity (PSR sort gate)” value does the source give for “QVHLVESGGGLVQAGGSLRLRCAASGSTFEYNAMGWYRPAPGKERELVASSTNYADSVKGRFTISRDNAKNTVSLQMNSLKPEDTAVYYCSREQGVNRNHDYWVQGTQVTVSS” here?
A: Its value is “low polyreactivity”.

Q: For “QVHLVESGGGLVQAGGSLRLRSPASGRTFDDNAMGWYRQAPGKESEMVAGITDNGGGTNYADSVKGRFTISRDNAKNTVYLQMSSLKPEDTAVYYCAADGKLVYVNGYNLYYWGQGTQVTVSS”, which “polyreactivity (PSR sort gate)” value is on record?
A: Its value is “low polyreactivity”.

Q: Which “polyreactivity (PSR sort gate)” value does the source give for “QVHLVESGGGLVQAGGSLRLSCAASAFIFNRNAMGGYRQAHGKERELVAAISRSGGRTYYADSVKGRFTISRDHAKNTVYIQMNSLKPEDTAVYYCATEGYHGEFDYWGQGTQVTVSS” here?
A: The value was “high polyreactivity”.

Q: Which “polyreactivity (PSR sort gate)” value does the source give for “QVHLVESGGGLVQAGGSLRLSCAASGFIFDPYGMGWYRQAPGKERELVAAISSRVGSTYYADSVKGRFTISRDNAKNTVYLQLNSLKPEDTAVYYCAADNDGVGYWVYEEMDYWGQGTQVTVSS” here?
A: Its value is “low polyreactivity”.

Q: For “QVHLVESGGGLVQAGGSLRLSCAASGFIFHSYAMGWYRQAPGKERELVASISRGGGSTYYADSVKGRFTISRDNAKNTVYLQMNSLKTEDTAVYYCNAVWRSNSRFDYWGQGTQVTVSS”, which “polyreactivity (PSR sort gate)” value is on record?
A: Its value is “high polyreactivity”.

Q: With “QVHLVESGGGLVQAGGSLRLSCAASGFIFRYYAMGWYRQAPGKEREMVAAISWSGGSTYYADSVKGRFTISRDNAKNTVYLQMNSLKPEDTAVYYCAADRYAILFYAEDYWGQGTQVTVSS” as the sequence, how does the “polyreactivity (PSR sort gate)” value read?
A: Its value is “low polyreactivity”.

Q: For “QVHLVESGGGLVQAGGSLRLSCAASGFIFTYYTMGWYRQAPGKERELVAAISRSGARTYYADSVKGRFTISRDNAKNTVYLQMNSLKPEDTAVYYCNTDISYGYYPVGYDYWGQGTQVTVSS”, which “polyreactivity (PSR sort gate)” value is on record?
A: The value was “high polyreactivity”.
